Experimental data from the supplement of paper PMC9170038.

Experiments:
MS2 coat protein [1] = assay: apparent KD of MS2 coat protein, switch ON state; designed switch direction (-1 OFF switch, 1 ON switch): 1; higher = weaker reporter binding; details: FMN input: 0 or 200 uM; Eterna round: R93 (includes R88 designs)
Method in brief: (§1)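 In 100 mM Tris-HCl pH 7.5 with 80 mM KCl and 4 mM MgCl2, and without or with constant ligand, SNAP-549-labelled MS2 coat protein was titrated in twofold steps from 0.7 or 1.5 nM to 3 µM. Per-step times went from 0.8–1.5 h down to 10–20 min. The RNA switches were transcribed on-chip from Illumina sequencing clusters, and apparent KD is the per-design median of normalised cluster binding-curve fits.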

MS2 coat protein [2] = assay: apparent KD of MS2 coat protein, switch OFF state (with FMN for OFF switches, without FMN for ON switches); designed switch direction (-1 OFF switch, 1 ON switch): 1; higher = weaker reporter binding; details: FMN input: 0 or 200 uM; Eterna round: R93 (includes R88 designs)
Method in brief: as §1

Row | Sequence | apparent KD of MS2 coat protein (MS2 coat protein [1]) [µM] | apparent KD of MS2 coat protein (MS2 coat protein [2]) [µM]
1 | AAUAUACAUGAGGAUCACCCAUGUGAAAAUAUGGGAGGAUAUCGGAAAAAAAAAAAAAAACGAGAAGGCCCAAAAA [SS! 1 MT 13] | 0.0208 | 0.119
2 | AAUAUAUUAAGUGAGGAUAUCAAGAAAAAAACAUGAGGAUCACCCAUGUGGGAAACACGAUAGGGUGAGAAGGUACUUAAUAUAU [Samwise Clockwise 19 - Jieux - Same State 2] | 0.0845 | 0.0425
3 | ACUACACAUGAGGAUCACCCAUGUCAGGUGGGACUAGGAUAUUAUAAACCAGAGUAAUUAUAAGAAGGAGUAGAAA [JR_SS001_Sub307] | 0.0326 | 0.0422
4 | ACUUCACAUGAGGAUCACCCAUGUCAGGCCGGACUAGGAUAUUAUCAUGCAGCGUAACCAUAAGAAGGAGUAGGAA [JR_SS001_Sub314] | 0.136 | 0.0573
5 | AGAAAACAUGAGGAUCACCCAUGUAGAAAUAUGGGAGGAUAUACGAAGACGAAAGUCAAAGUAGAAGGCCUAAAGA [Mat - Same State 1 - Eli mod - D101] | 0.0236 | 0.0776
6 | AGAAAACAUGAGGAUCACCCAUGUUAGUGUCAUUAAGGAUAUAGGCUUAAGAAUCUGAGACUAGAAGGUGGUGCGC [Orbeus] | 0.0219 | 0.0308
7 | AGAAAUAAAACACAGGAUAUCCAAAAUAAAACAUGAGGAUCACCCAUGUAAAAUAAAAUAAAAUGGGAGAAGGGUGAAAAUAAAG [Mat - Same State 2 - JL mod - D10] | 0.0253 | 0.0399
8 | AGAAAUAAAAGAGAGGAUAUCUCAAAGAAAACAUGAGGAUCACCCAUGUAAAAGAAAAUAAAAUGGGAGAAGGCUCAUAAUAAAG [JL Skelter Mod 5 In the Red] | 0.0543 | 0.133
9 | AGAAAUAAAGGAGAGGAUAUCCAAAAGAAAACAUGAGGAUCACCCAUGUAAAAGAAAAUAAAAUGGGAGAAGGCUUCAAAUAAGA [Starry modified V4] | 0.0523 | 0.0464
10 | AGAAAUAAAUGAGAGGAUAUCCAAAAGAAAACAUGAGGAUCACCCAUGUAAAAGAAAAUAAAAUGGGAGAAGGCUCAAAAUAAAG [80%, More Helter Skelter 2] | 0.0235 | 0.0585
11 | AGACAUAACAGAGAGGAUAUCCAAUAGAAAACAUGAGGAUCACCCAUGUGAAAGAUAAUAAAAUGGGAGAAGGCUCACAUACAGA [Topaz 40] | 0.0195 | 0.0304
12 | AGAGUAAACAGAGAGGAUAUCCAAUAGAAAACAUGAGGAUCACCCAUGUGAAAGAUAAUAAAAUGGGAGAAGGCUCACAAUAAGA [Topaz 43] | 0.0246 | 0.0494
13 | AGCAUGCGAUAUAAGGAUAUGUUGUUUGCAACAUGAGGAUCACCCAUGUUUGAGGCUGAAAAGCAGCAGAAGGUAUAUACAAGCA [SS2-1.0] | 0.00945 | 0.013
14 | AGGAAACAUGAGGAUCACCCAUGUAAAAAAUAGGGAGGAUAUACUAGAAGAAACAAAAUAGUAGAAGGUCCAAAAA [75%, Ex sub1, 24] | 0.0184 | 0.0276
15 | AGGAAACAUGAGGAUCACCCAUGUAAAAAUAUGGGAGGAUAUACAAAGACGAAAGUCAAAGUAGAAGGCCUAAAAG [77%, Mat - Mod of Eli, 4] | 0.0214 | 0.0601
16 | AGGAAACAUGAGGAUCACCCAUGUAAAAAUAUGGGAGGAUAUACGAAGAAAAAAAAAAAAGUAGAAGGCCUAAAAG [Garnet 11] | 0.0907 | 0.345
17 | AGGAAACAUGAGGAUCACCCAUGUAAAAAUAUGGGAGGAUAUACUAGAAGAAACAAAAUAGUAGAAGGCCUAAAAA [75%, Ex sub1, 26] | 0.0174 | 0.0474
18 | AGGAGACAUGAGGAUCACCCAUGUGAGAAGAGGCGAGGAUAUCGAAAGAAAGAAGAGAAACGAGAAGGCGCGAGGG [salish99-SS1-027] | 0.0269 | 0.0392
